From the RNAGym collection of RNA variant scans (doi:10.7554/elife.80360) come the findings set out here.

B1: HDV Ribozyme (parent)
chain: GGCCGGCAUGGUCCCAGCCUCCUCGCUGGCGCCGGCUGGGCAACAUUCCGAGGGGACCGUCCCCUCGGUAAUGGCGAAUGGGACCCA

In the data set the parent is B1. The experiment in a line: self-cleavage, relative activity (ratio to wild type); higher = more cleavage; co-transcriptional.
For the variant CGCCGGCAUGGUCCCAGCCUCCUCGCUGCCGCCGGCUGGGCAACAUUCCGAGGGGACCGUCCCCUCGGUAAUGGCGAAUGGGACCCA [G1C G29C], the self-cleavage was determined as 0.0665. The value for GUCCGGCAUGGUCCCAGCCUCCUCGCUGACGCCGGCUGGGCAACAUUCCGAGGGGACCGUCCCCUCGGUAAUGGCGAAUGGGACCCA [G2U G29A] was 0.0178; that for GGCCGGCAUGGUCCCAGCCUCCUCGCUGGCGGCGGCUGGGCAACAUUCCGAGGGGGCCGUCCCCUCGGUAAUGGCGAAUGGGACCCA [C32G A56G] was 0.0852. The value for GGCCGGCAUGGCCCCAGCCGCCUCGCUGGCGCCGGCUGGGCAACAUUCCGAGGGGACCGUCCCCUCGGUAAUGGCGAAUGGGACCCA [U12C U20G] was 0.0831; that for GGCCGGCAUGGUCCCAGCCUCCUCGCUGGCGCCGGUUGGGCAACAUCCCGAGGGGACCGUCCCCUCGGUAAUGGCGAAUGGGACCCA [C36U U47C] was 0.467. As for GGCCCGCAUGGUCCCAGCCUCCUCGCUGGCGCCGGCUGGGCAACAUCCCGAGGGGACCGUCCCCUCGGUAAUGGCGAAUGGGACCCA [G5C U47C], the figure is 0.0594. Take GGCCGGCAUGGUCCCAGCCUCCUCUCUCGCGCCGGCUGGGCAACAUUCCGAGGGGACCGUCCCCUCGGUAAUGGCGAAUGGGACCCA [G25U G28C]: the self-cleavage is 0.106.

Turning to GGCCGGCAUGGUCCCAGCCUCCUCGCUGGCGCCGGCUGGGCAACAUUCCGAGGGGACCGUCCCUUCGGUAAUGGCCAAUGGGACCCA [C64U G76C], the self-cleavage worked out at 0.905. The value for GGCCGGCAUGGUCCCAGCCUCCUCGCUGGCGCCGGCUGGCCAACAUUCCAAGGGGACCGUCCCCUCGGUAAUGGCGAAUGGGACCCA [G40C G50A] was 0.219; that for GGCCCGCAUGGUCCCAGCCACCUCGCUGGCGCCGGCUGGGCAACAUUCCGAGGGGACCGUCCCCUCGGUAAUGGCGAAUGGGACCCA [G5C U20A] was 0. The value for CGCCGGCAUGGUCCCAGCCUCCUCGCUGGCGCGGGCUGGGCAACAUUCCGAGGGGACCGUCCCCUCGGUAAUGGCGAAUGGGACCCA [G1C C33G] was 0; that for GGCCGGCAUGGUCCCAGCCUCCUCGCUGGCGCCGGCUGGGCAACAUUCCGAGGGGACUGUCCCCUUGGUAAUGGCGAAUGGGACCCA [C58U C66U] was 0.911. As for GGCCGGGAUAGUCCCAGCCUCCUCGCUGGCGCCGGCUGGGCAACAUUCCGAGGGGACCGUCCCCUCGGUAAUGGCGAAUGGGACCCA [C7G G10A], the self-cleavage came out at 0.128.

Consider GGCCGGCAUGGUCCCAGCCUCCUCGCUGUCGCCGGCUGGGCAACAUUCCGAGGGGACCGUCCCCUCGGCAAUGGCGAAUGGGACCCA [G29U U69C], for which the self-cleavage is 0.128. The value for GGCCGGCAUGGUCCCAGCCUCCUCGCUGGCGCCGGCUGGGCAACAUUCCGAGGGGACCGUCCCCUCGAUAAUGGCGGAUGGGACCCA [G68A A77G] was 0.743; that for GGCCGGCAUGGUCCCAGCCUCCUCGCUGGCGCCGGCUGGGCAACAUUCGGAGGGGACCGUCCCCUCGGUCAUGGCGAAUGGGACCCA [C49G A70C] was 0.415.

GGCCGGCAUGGUCCCAGCCUGCUCGCUGGCGCCGGCUGGGCUACAUUCCGAGGGGACCGUCCCCUCGGUAAUGGCGAAUGGGACCCA [C21G A42U]: the self-cleavage was found to be 0.0437. As for GCCCGGCAUGGUCCCAGCCUCCACGCUGGCGCCGGCUGGGCAACAUUCCGAGGGGACCGUCCCCUCGGUAAUGGCGAAUGGGACCCA [G2C U23A], the figure is 0.

On to GGCCGGCAUGGCCCCAGCCUCCUCGCUGGCGCCGGCUGGGCAACAUUCCGAGGGGACCGUCCCCUCGGUAAUGCCGAAUGGGACCCA [U12C G74C], for which the self-cleavage was determined as 0. With GGCCGGCAUGGUCCCAGCCUCCUCGCUGGCGCCGCCUGGGCAACAUUCCGAGGGGACAGUCCCCUCGGUAAUGGCGAAUGGGACCCA [G35C C58A], the self-cleavage was 0.175. As for GGCCGGCAUGGUCCCAGCCUCCUCGCUGGCGCCGGCUGGGCAACAUUCCGAGGGGACCGUCCCCUCCAUAAUGGCGAAUGGGACCCA [G67C G68A], the figure is 0.955. The value for GGCCGGCAUGGUCCCAGCCUCCUCGCUGGCGCCGGCUGGGCAACAUUCCGAGGGGACCGUCCCCUGGGGAAUGGCGAAUGGGACCCA [C66G U69G] was 1.18. Take GGCUGGCAUGGUCCCAGCCUCCUCGCUGGCGCCGGCUGGGCAACAUUCCGAGGGGACCGUCCCCUCGGUAAUGGCGAUUGGGACCCA [C4U A78U]: the self-cleavage amounted to 0.155.

Take GGCCGCCAUGGUCCCAGCCUCCUCGCUGGCGCCGGCUGGGCAACAUUCCGAGGGGACCGUCCCCUCGGCAAUGGCGAAUGGGACCCA [G6C U69C]: the self-cleavage was 0.172. GGCCGGCAUGGUCCCAGCCUCCUCGCUGGCGCCGGCUGGGCUACAUUCCGAGGGGACCGUCGCCUCGGUAAUGGCGAAUGGGACCCA [A42U C62G]: the self-cleavage is 0.6. For GGCCGGCAUGUUCCCAGCCUCCUCGCUGCCGCCGGCUGGGCAACAUUCCGAGGGGACCGUCCCCUCGGUAAUGGCGAAUGGGACCCA [G11U G29C], the self-cleavage amounted to 0.0231. The value for GGCCGCCAUGGUCCCAGCCUCCUCGCUGGCGCCGGCGGGGCAACAUUCCGAGGGGACCGUCCCCUCGGUAAUGGCGAAUGGGACCCA [G6C U37G] was 0.0923. The value for GGCCGGCAUGGUCCCAGCCUCCUCGCUGGCGCCGGCUGGGCAAAAUUCCGAGGGGACCGUCCCCUCGGUAAUGACGAAUGGGACCCA [C44A G74A] was 0.381.

Take GGCCGGCAUGGUCCCAGCCUCCUCGCUGGCGCCGUCUGGGCAACAUUCCGAGGGGACCGUCCCCUCGGUAAUGGCGAGUGGGACCCA [G35U A78G]: the self-cleavage turned out to be 0.0723. With GGCCGGCAUGGUCCCAGACUCCUCGCUGGCGCCGGCUGGGCAACAUUCCGAGGGGAACGUCCCCUCGGUAAUGGCGAAUGGGACCCA [C18A C57A], the self-cleavage was found to be 0.219. The value for GGCCGGCAUGGUCUCAGCCUCCUCGCUAGCGCCGGCUGGGCAACAUUCCGAGGGGACCGUCCCCUCGGUAAUGGCGAAUGGGACCCA [C14U G28A] was 0.0811; that for GGCCGGCAUGGUCCCAGCCUCCUCGCUGGCGCCGGCUGGGCAACAUUCCGAGUGGACCGUCCCCUCAGUAAUGGCGAAUGGGACCCA [G53U G67A] was 0.855.
